Results published in patent publication US20250333441A1, “POLYPEPTIDE INHIBITORS AND USES THEREOF” (Neuracle Science Co., Ltd., priority 2021, published 2025).

Tested on: mouse primary hippocampal neurons
Assay: Synapse formation (SYP, PSD95) in primary hippocampal neurons
Assay type: cell-based
Details: 6 or 60 nM
Experimental: Next, it is generally known that neurites that outgrow from other neurites are capable of differentiating into axons, forming presynapses. Other neurites remain minor neurites and differentiate into dendrites, forming postsynapses. Therefore, whether the LRRC4B (453-576) protein fragment can also affect pre- and post-synaptic formation was also assessed. Briefly, mouse primary hippocampal neurons were cultured in vitro with the LRRC4B (453-576) protein fragment (6 or 60 nM). Control cells were treated with either DMSO (“Veh”) or the mutant LRRC4B (453-576) protein fragment which is not capable of binding to FAM19A5 protein (comprises alanine substitutions at positions 488 and 489). Then, at days 3 and 6 post initial culture, the expression level of synaptophysin (SYP; a presynaptic marker) was assessed. At day 7 post initial culture, the expression level of postsynaptic density 95 (PSD95; a postsynaptic marker) was assessed.
Primary hippocampal neurons were prepared from postnatal pups (postnatal day 1) of C57BL/6 (Nara Biotech, Seoul, Korea) as previously described by Beaudoin et al., Nature protocols 7(9): 1741-1754 (2012), which is incorporated herein by reference in its entirety. Briefly, cortices were dissected in Hank's buffered salt solution (HBSS) (Invitrogen, Carlsbad, CA, USA) and digested with 2.5% trypsin for 15 min at 37° C. […]

B1: LRRC4B (453-576): LRRC4B fragment, amino acids 453-576 of SEQ ID NO: 2 (SEQ ID NO: 7); used hFc-fused (protein)
chain: VSAVDPVAAGGTGSGGGGPGGSGGVGGGSGGYTYFTTVTVETLETQPGEEALQPRGTEKEPPGPTTDGVWGGGRPGDAAGPASSSTTAPAPRSSRPTEKAFTVPITDVTENALKDLDDVMKTTK
modifications: human Fc fusion in use
notes: used hFc-fused
  number of puncta colabeled with SYP and PSD95: increased number of puncta
